Assay results reported in article PMC7160950, “Identification and analysis of KLF13 variants in patients with congenital heart disease” (BMC Medical Genetics, 2020).

Target: Kruppel-like factor 13 (KLF13), wild type, myc-tagged (human, UniProt Q9Y2Y9 1-288)
Experiment: cell-based or functional assay

Sequence of Kruppel-like factor 13 (KLF13), wild type, myc-tagged (Q9Y2Y9 whole entry): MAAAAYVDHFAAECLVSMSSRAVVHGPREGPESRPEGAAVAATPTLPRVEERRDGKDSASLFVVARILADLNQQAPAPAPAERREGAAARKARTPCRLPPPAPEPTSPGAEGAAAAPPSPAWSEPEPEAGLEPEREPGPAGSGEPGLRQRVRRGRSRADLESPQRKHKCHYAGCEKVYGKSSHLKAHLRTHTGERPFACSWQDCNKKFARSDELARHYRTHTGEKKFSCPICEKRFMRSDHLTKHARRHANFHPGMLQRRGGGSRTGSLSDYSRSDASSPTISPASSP

B1: TBX5 (natural protein, UniProt Q99593 1-518, looked up)
chain: MADADEGFGLAHTPLEPDAKDLPCDSKPESALGAPSKSPSSPQAAFTQQGMEGIKVFLHERELWLKFHEVGTEMIITKAGRRMFPSYKVKVTGLNPKTKYILLMDIVPADDHRYKFADNKWSVTGKAEPAMPGRLYVHPDSPATGAHWMRQLVSFQKLKLTNNHLDPFGHIILNSMHKYQPRLHIVKADENNGFGSKNTAFCTHVFPETAFIAVTSYQNHKITQLKIENNPFAKGFRGSDDMELHRMSRMQSKEYPVVPRSTVRQKVASNHSPFSSESRALSTSSNLGSQYQCENGVSGPSQDLLPPPNPYPLPQEHSQIYHCTKRKEEECSTTDHPYKKPYMETSPSEEDSFYRSSYPQQQGLGASYRTESAQRQACMYASSAPPSEPVPSLEDISCNTWPSMPSYSSCTVTTVQPMDRLPYQHFSAHFTSGPLVPRLAGMANHGSPQLGEGMFQHQTSVAHQPVVRQCGPQTGLQSPGTLQPPEFLYSHGVPRTLSPHQYHSVHGVGMVPEWSDNS
BNP-luciferase reporter activation in NIH 3 T3 cells cotransfected with KLF13 and TBX5: ≤ 75 fold
